The experiment addresses gp120. The experiment is described as follows: fluorescence anisotropy, Kd values of Table I, told of the isolates together.

On to “Alexa labeled mini-protein CD4M47 (peptide)”, for which the fold gain of affinity over CD4M48 came out at 3 fold.

The record behind these values is patent publication US20090285798A1.
